Results on four molecules are retold here after US20240425614A1 (NARA MEDICAL UNIVERSITY, published 2024).

Data set [1] deals with von Willebrand factor (VWF) multimer in human plasma, P04275.
For data set [2], the target named is T1, ADAMTS13 in normal human plasma (human, UniProt Q76LX8 75-1427).
T1 sequence (looked up): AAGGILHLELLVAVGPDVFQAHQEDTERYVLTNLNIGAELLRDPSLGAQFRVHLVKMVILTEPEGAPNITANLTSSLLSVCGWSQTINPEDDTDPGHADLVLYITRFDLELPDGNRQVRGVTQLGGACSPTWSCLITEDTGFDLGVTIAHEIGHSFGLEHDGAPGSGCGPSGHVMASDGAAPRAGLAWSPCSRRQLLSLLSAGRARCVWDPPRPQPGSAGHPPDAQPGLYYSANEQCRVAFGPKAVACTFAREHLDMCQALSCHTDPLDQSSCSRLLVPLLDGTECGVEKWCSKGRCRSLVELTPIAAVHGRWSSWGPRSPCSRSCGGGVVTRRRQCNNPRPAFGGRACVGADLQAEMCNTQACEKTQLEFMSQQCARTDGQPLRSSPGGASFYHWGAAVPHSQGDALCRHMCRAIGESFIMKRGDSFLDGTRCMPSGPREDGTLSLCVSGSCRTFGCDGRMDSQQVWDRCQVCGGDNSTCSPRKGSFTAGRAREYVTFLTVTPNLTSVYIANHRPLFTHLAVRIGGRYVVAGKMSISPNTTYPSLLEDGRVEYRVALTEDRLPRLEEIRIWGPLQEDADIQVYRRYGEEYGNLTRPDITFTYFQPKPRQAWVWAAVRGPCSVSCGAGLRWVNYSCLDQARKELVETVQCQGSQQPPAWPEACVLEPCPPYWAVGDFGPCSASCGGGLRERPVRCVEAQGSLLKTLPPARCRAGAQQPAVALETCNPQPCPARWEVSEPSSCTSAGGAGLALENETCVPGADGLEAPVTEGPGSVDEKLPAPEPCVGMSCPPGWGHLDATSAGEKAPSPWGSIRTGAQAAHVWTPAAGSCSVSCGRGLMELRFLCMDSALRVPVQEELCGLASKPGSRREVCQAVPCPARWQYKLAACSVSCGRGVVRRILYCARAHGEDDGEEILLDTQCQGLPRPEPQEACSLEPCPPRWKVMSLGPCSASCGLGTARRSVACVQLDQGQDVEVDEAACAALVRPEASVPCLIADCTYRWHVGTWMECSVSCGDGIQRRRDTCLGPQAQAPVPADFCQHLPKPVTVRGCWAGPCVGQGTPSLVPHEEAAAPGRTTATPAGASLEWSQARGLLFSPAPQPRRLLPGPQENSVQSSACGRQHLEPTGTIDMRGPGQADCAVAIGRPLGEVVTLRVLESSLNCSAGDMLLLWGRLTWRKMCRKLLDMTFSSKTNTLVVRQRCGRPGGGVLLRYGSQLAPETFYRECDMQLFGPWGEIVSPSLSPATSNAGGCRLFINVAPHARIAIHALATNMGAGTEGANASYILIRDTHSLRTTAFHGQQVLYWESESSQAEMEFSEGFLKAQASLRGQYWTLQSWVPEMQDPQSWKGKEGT
Kind of data set: cell-based or functional assay.

B1: ADAMTS13 in normal human plasma (protein)
chain: AAGGILHLELLVAVGPDVFQAHQEDTERYVLTNLNIGAELLRDPSLGAQFRVHLVKMVILTEPEGAPNITANLTSSLLSVCGWSQTINPEDDTDPGHADLVLYITRFDLELPDGNRQVRGVTQLGGACSPTWSCLITEDTGFDLGVTIAHEIGHSFGLEHDGAPGSGCGPSGHVMASDGAAPRAGLAWSPCSRRQLLSLLSAGRARCVWDPPRPQPGSAGHPPDAQPGLYYSANEQCRVAFGPKAVACTFAREHLDMCQALSCHTDPLDQSSCSRLLVPLLDGTECGVEKWCSKGRCRSLVELTPIAAVHGRWSSWGPRSPCSRSCGGGVVTRRRQCNNPRPAFGGRACVGADLQAEMCNTQACEKTQLEFMSQQCARTDGQPLRSSPGGASFYHWGAAVPHSQGDALCRHMCRAIGESFIMKRGDSFLDGTRCMPSGPREDGTLSLCVSGSCRTFGCDGRMDSQQVWDRCQVCGGDNSTCSPRKGSFTAGRAREYVTFLTVTPNLTSVYIANHRPLFTHLAVRIGGRYVVAGKMSISPNTTYPSLLEDGRVEYRVALTEDRLPRLEEIRIWGPLQEDADIQVYRRYGEEYGNLTRPDITFTYFQPKPRQAWVWAAVRGPCSVSCGAGLRWVNYSCLDQARKELVETVQCQGSQQPPAWPEACVLEPCPPYWAVGDFGPCSASCGGGLRERPVRCVEAQGSLLKTLPPARCRAGAQQPAVALETCNPQPCPARWEVSEPSSCTSAGGAGLALENETCVPGADGLEAPVTEGPGSVDEKLPAPEPCVGMSCPPGWGHLDATSAGEKAPSPWGSIRTGAQAAHVWTPAAGSCSVSCGRGLMELRFLCMDSALRVPVQEELCGLASKPGSRREVCQAVPCPARWQYKLAACSVSCGRGVVRRILYCARAHGEDDGEEILLDTQCQGLPRPEPQEACSLEPCPPRWKVMSLGPCSASCGLGTARRSVACVQLDQGQDVEVDEAACAALVRPEASVPCLIADCTYRWHVGTWMECSVSCGDGIQRRRDTCLGPQAQAPVPADFCQHLPKPVTVRGCWAGPCVGQGTPSLVPHEEAAAPGRTTATPAGASLEWSQARGLLFSPAPQPRRLLPGPQENSVQSSACGRQHLEPTGTIDMRGPGQADCAVAIGRPLGEVVTLRVLESSLNCSAGDMLLLWGRLTWRKMCRKLLDMTFSSKTNTLVVRQRCGRPGGGVLLRYGSQLAPETFYRECDMQLFGPWGEIVSPSLSPATSNAGGCRLFINVAPHARIAIHALATNMGAGTEGANASYILIRDTHSLRTTAFHGQQVLYWESESSQAEMEFSEGFLKAQASLRGQYWTLQSWVPEMQDPQSWKGKEGT
For B1, the “VWF multimer analysis (SDS-agarose gel, Western blot) of human plasma under high shear stress” value in data set [1] is “more deficiency in high-molecular-weight VWF multimer and stronger cleavage of VWF were shown with increase in shear stress of 108 dyne/cm^2, 216 dyne/cm^2, and 324 dyne/cm^2”.

B2: 1G2 antibody (antibody, mouse IgG1, kappa, V domains shown)
VH: QVQLRESGPGLVAPSQSLSITCTVSGFSLPRYGIHWVRQPPGKGLEWLGVIWAGGSTDYDSALMSRLSISKDTSKSQVFLKMSSLQTDDTAIYYCARAGGSQPFDYWGQGTTLTVSS
VL: DIKMTQSPSSMYASLGERVTITCKASRDINTYLSWFQQKPGKSPKTLISRANRLVDGVPSRFSGSGSGQDYSLSISSLEYEDMGFYYCLQYDEFPWTFGGGTKLVIKR
In the case of B2, in data set [2], the “ID50 concentration on the VWF cleaving activity of ADAMTS13 (ADAMTS13 activity remaining in human plasma, ELISA)” value was ~7.28 µg/mL.

B3: 12D10 antibody (antibody, mouse IgG1, kappa, V domains shown)
VH: QVQLKESGPGLVAPSQSLSITCTVSGFSLTRYGVHWVRQPPGKGLEWLGVIWAGGSTNYKSALMSRLNITKDNSKSQVFLKMNGLQTDDTAIYFCARAGGSSSFDYWGQGTTLTVSS
VL: DIKMTQSPSSMNASLGERVTITCKASQDINTYLGWFQQKPGKSPKTLIYRANRLVDGVPSRFSGSGSGQGYSLTISSLEYEDMGIYYCLQYDEFPWTFGGGTKLEIKR
As to B3, the “ID50 concentration on the VWF cleaving activity of ADAMTS13 (ADAMTS13 activity remaining in human plasma, ELISA)” value in data set [2] was ~25.4 µg/mL.

B4: 9A7 antibody (antibody, mouse IgG2b, kappa, V domains shown)
VH: QVQLKESGPGLVAPSQSLSITCTVSGFSLTGYGIHWVRQPPGKGLEWLGVIWADGTTNSNSALMSRLSISKDNSKSQVFLKMTSLQTDDTAMYHCARAGGSQPFDYWGQGTTLTVSS
VL: DIKMTQSPSSMYASLGERVTITCKASQDINSYLSWFQQKPGKSPKTLIFRANRLVDGVPSRFSGSGSGQDYSLTISSLEYEDMEIYYCLQYDEFPWTFGGGTKLEIKR
Consider B4, for which the “ID50 concentration on the VWF cleaving activity of ADAMTS13 (ADAMTS13 activity remaining in human plasma, ELISA)” value in data set [2] is ~19.5 µg/mL.
